Test in all cases: flow cytometry, GFP-positive transfected HEK-293T cells, fluorochrome-conjugated antibody at 10 ug/ml, Geo-mean relative to wild type;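 further: cells express mutant human BTLA ectodomain fused to murine CD28 transmembrane and cytoplasmic parts, stained 48 h after transfection for 1 h at 4 °C alongside a Live/Dead dye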
In general terms: Flow cytometry measures light scatter and fluorescence of single cells or particles in a stream.

One experiment has as its target T1, E83R (Mus musculus).
T1 construct: transmembrane and intracellular regions; also called BTLA E83R construct

A further experiment deals with T2, D52R (Mus musculus).
T2 construct: transmembrane and intracellular regions; also called BTLA D52R construct

A further experiment deals with T3, N108R (Mus musculus).
T3 construct: transmembrane and intracellular regions; also called BTLA N108R construct

For a further experiment, the target named is T4, L123R (Mus musculus).
T4 construct: transmembrane and intracellular regions; also called BTLA L123R construct

In a further experiment the target is T5, D35R (Mus musculus).
T5 construct: transmembrane and intracellular regions; also called BTLA D35R construct

The next experiment has as its target T6, N65R (Mus musculus).
T6 construct: transmembrane and intracellular regions; also called BTLA N65R construct

Another experiment has as its target T7, S121R (Mus musculus).
T7 construct: transmembrane and intracellular regions; also called BTLA S121R construct

The target of the next experiment is T8, E57R (Mus musculus).
T8 construct: transmembrane and intracellular regions; also called BTLA E57R construct

Another experiment concerns the target T9, E103R (Mus musculus).
T9 construct: transmembrane and intracellular regions; also called BTLA E103R construct

Another experiment concerns the target T10, H68E (Mus musculus).
T10 construct: transmembrane and intracellular regions; also called BTLA H68E construct

A further experiment concerns the target T11, E92R (Mus musculus).
T11 construct: transmembrane and intracellular regions; also called BTLA E92R construct

The target in the next experiment is T12, Q86R (Mus musculus).
T12 construct: transmembrane and intracellular regions; also called BTLA Q86R construct

Another experiment concerns the target T13, S47R (Mus musculus).
T13 construct: transmembrane and intracellular regions; also called BTLA S47R construct

The target in a further experiment is T14, Y132R (Mus musculus).
T14 construct: transmembrane and intracellular regions; also called BTLA Y132R construct

The target in another experiment is T15, V80R (Mus musculus).
T15 construct: transmembrane and intracellular regions; also called BTLA V80R construct

For another experiment, the target named is T16, T78R (Mus musculus).
T16 construct: transmembrane and intracellular regions; also called BTLA T78R construct

A further experiment addresses T17, K137E (Mus musculus).
T17 construct: transmembrane and intracellular regions; also called BTLA K137E construct

The target of the next experiment is T18, E45R (Mus musculus).
T18 construct: transmembrane and intracellular regions; also called BTLA E45R construct

Another experiment deals with T19, E55R (Mus musculus).
T19 construct: transmembrane and intracellular regions; also called BTLA E55R construct

A further experiment addresses T20, K81L (Mus musculus).
T20 construct: transmembrane and intracellular regions; also called BTLA K81L construct

The next experiment has as its target T21, A64R (Mus musculus).
T21 construct: transmembrane and intracellular regions; also called BTLA A64R construct

The next experiment concerns the target T22, L106R (Mus musculus).
T22 construct: transmembrane and intracellular regions; also called BTLA L106R construct

In a further experiment the target is T23, Q120R (Mus musculus).
T23 construct: transmembrane and intracellular regions; also called BTLA Q120R construct

T9 sequence (Q7Z6A9 31-151 E103R): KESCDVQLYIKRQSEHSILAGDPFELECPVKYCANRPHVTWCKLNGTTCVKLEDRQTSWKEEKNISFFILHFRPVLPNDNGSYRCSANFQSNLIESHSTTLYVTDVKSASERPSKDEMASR
T13 sequence (Q7Z6A9 31-151 S47R): as the sequence (Q7Z6A9 31-151 E103R) above, with S17R, R73E counted along it
T7 sequence (Q7Z6A9 31-151 S121R): as the sequence (Q7Z6A9 31-151 E103R) above, with R73E, S91R counted along it
T17 sequence (Q7Z6A9 31-151 K137E): as the sequence (Q7Z6A9 31-151 E103R) above, with R73E, K107E counted along it
T16 sequence (Q7Z6A9 31-151 T78R): as the sequence (Q7Z6A9 31-151 E103R) above, with T48R, R73E counted along it
T3 sequence (Q7Z6A9 31-151 N108R): as the sequence (Q7Z6A9 31-151 E103R) above, with R73E, N78R counted along it
T18 sequence (Q7Z6A9 31-151 E45R): as the sequence (Q7Z6A9 31-151 E103R) above, with E15R, R73E counted along it
T5 sequence (Q7Z6A9 31-151 D35R): as the sequence (Q7Z6A9 31-151 E103R) above, with D5R, R73E counted along it
T14 sequence (Q7Z6A9 31-151 Y132R): as the sequence (Q7Z6A9 31-151 E103R) above, with R73E, Y102R counted along it
T8 sequence (Q7Z6A9 31-151 E57R): as the sequence (Q7Z6A9 31-151 E103R) above, with E27R, R73E counted along it
Protocol for A64R: (§1) Constructs encoding the human extracellular region of BTLA with the transmembrane and intracellular regions of murine CD28 were cloned into the bi-cistronic mammalian expression vector pGFP2-n2 (BioSignal Packard Ltd), which also encodes GFP. […] Mock and no-transfection controls were included with each experiment. Cells were harvested at 48 hours and stained with fluorochrome-conjugated anti-BTLA antibody at 10 μg/ml, alongside a Live/Dead marker, in PBS, 0.05% azide, 2% FCS (FACS buffer) for 1 h at 4° C. Cells were washed, pelleted and resuspended in 200 μl FACS buffer before being analysed on a BD FACSCanto flow cytometer. […] For each mutant the Geo-mean of anti-BTLA antibody binding to transfected cells was expressed as a percentage of binding to the wild-type receptor (FIG. 3b). A panel of anti-BTLA antibodies was assessed and any mutation that eliminated binding of all antibodies was excluded from the analysis, on the assumption that such mutations lead to drastic changes in protein folding or expression rather than indicating an antibody epitope.
Protocol for D35R: as §1
Protocol for D52R: as §1
Protocol for E103R: as §1
Protocol for E45R: as §1
Protocol for E55R: as §1
Protocol for E57R: as §1
Protocol for E83R: as §1
Protocol for E92R: as §1
Protocol for H68E: as §1
Protocol for K137E: as §1
Protocol for K81L: as §1
Protocol for L106R: as §1
Protocol for L123R: as §1
Protocol for N108R: as §1
Protocol for N65R: as §1
Protocol for Q120R: as §1
Protocol for Q86R: as §1
Protocol for S121R: as §1
Protocol for S47R: as §1
Protocol for T78R: as §1
Protocol for V80R: as §1
Protocol for Y132R: as §1

B1: 2.8.6 (antibody, V domains shown)
VH: QVQLKESGPGLVAPSQSLSITCTVSGFSLTTYGVHWVRQSPGKGLEWLGVMWPGGRTSYNPAPMSRLSISKDNSKSQVFLKMNSLQTDDTAMYYCVRGDYEYDYYAMDYWGQGTSVTVSS
VL: QIVLSQSPAILSASPGEKVTMTCRASSSVSYMHWYQQKPGSSPKPWIYATSNLASGVPARFSGSGSGTSYSLTISRMEAEDAATYYCHQWSSNPYTFGGGTKLEIK
notes: mouse IgG1k hybridoma antibody; also called clone 2.8.6
Turning to B1, the “binding as % of binding to wild-type BTLA” value (“binding as % of binding” below) with E83R came out at 98.8%; with D52R, 70.2%; with N108R it was 107%; in the experiment with L123R, 97.4%; with D35R, 83.7%; with N65R, 89%. The “binding as % of binding” value with S121R is 67.9%; with E57R, 76.3%; with E103R, 79%; with H68E, 126%; with E92R, 62.2%; with Q86R, 97.9%. Besides, the “binding as % of binding” value with S47R turned out to be 99.7%; with Y132R it was 68.2%; with V80R, 71.6%; with T78R it was 95.3%; with K137E, 80.1%; with E45R, 96.3%. Besides, the “binding as % of binding” value with E55R came out at 52%; in the experiment with K81L it was 90.3%; in the experiment with A64R, 93.5%; with L106R, 80.4%; with Q120R, 76.3%.

B2: 11.5.1 (antibody, V domains shown)
VH: EVQLQESGPSLVKPSQTLSLTCSVTGDSITSAYWNWIRKFPGNKLEYMGYISYSGSTYFNPSLKSRISITRNTSKNQYYLQLNSVTTEDTATYYCARSHYYGYYFDYWGHGTTLTVSS
VL: DIVLTQSPASLAVSLGQRATISCRASETIDSYGDSLMHWYQQKAGQPPKLLIYRASNLESGIPARFSGSGSRTDFTLTINPVEADDVATYYCQQTDEDPYTFGGGTKLEIK
notes: mouse IgG1k hybridoma antibody
B2: the “binding as % of binding” value with E83R amounted to 95.5%; with D52R, 129%; with N108R, 171%; in the experiment with L123R, 116%; with D35R it was 71.2%; with N65R it was 87.9%. For the same molecule, the “binding as % of binding” value with S121R is 42.5%; in the experiment with E57R it was 108%; with E103R, 213%; in the experiment with H68E it was 81.3%; with E92R, 73.3%; with Q86R, 132%. Also, the “binding as % of binding” value with S47R is 108%; with Y132R, 68.1%; with V80R it was 39.9%; in the experiment with T78R it was 109%; with K137E it was 55.6%; with E45R, 108%. The “binding as % of binding” value with E55R is 60.5%; with K81L it was 116%; in the experiment with A64R, 148%; in the experiment with L106R, 135%; in the experiment with Q120R it was 89.9%.

The values are drawn from patent US20230235058A1 (OXFORD UNIVERSITY INNOVATION, published 2023).
